B1: DCAF4 (parent)
chain: TTKCVRQYEGHVNEYAYLPLHVHE

Variants of: B1
Assay: protein stability index of a GFP-peptide fusion (GPS, HEK-293T) (PSI 1-6); higher = more stable
Conditions: c terminus: a fixed tail appended
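Further: lentivirally expressed fusions sorted by FACS into six bins by GFP to DsRed ratio, PSI derived from sequencing read proportions per bin multiplied by bin number.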

| Variant | protein stability index |
| --- | --- |
| TTKCVRQYEGHVNCYAYLPLHVHE [E14C] | 2.03 |
| TTKCVRQYEGHVNSYAYLPLHVHE [E14S] | 2.05 |
| TTKCVRQYEGHVNRYAYLPLHVHE [E14R] | 2.34 |
| TTKCVRQYEGHVNGYAYLPLHVHE [E14G] | 2.29 |
| TTKCVRQYEGHVNVYAYLPLHVHE [E14V] | 1.44 |
| TTKCVRQYEGHVNPYAYLPLHVHE [E14P] | 2.57 |
| TTKCVRQYEGHVNFYAYLPLHVHE [E14F] | 3.16 |
| TTKCVRQYEGHVNYYAYLPLHVHE [E14Y] | 1.64 |
| TTKCVRQYSGHVNEYAYLPLHVHE [E9S] | 2.04 |
| TTKCVRQYFGHVNEYAYLPLHVHE [E9F] | 1.76 |
| TTKCVRQYHGHVNEYAYLPLHVHE [E9H] | 1.97 |
| TTKCVRQYTGHVNEYAYLPLHVHE [E9T] | 1.91 |
| TTKCVRQYWGHVNEYAYLPLHVHE [E9W] | 1.61 |
| TTKCVRQYCGHVNEYAYLPLHVHE [E9C] | 1.63 |
| TTKCVRQYAGHVNEYAYLPLHVHE [E9A] | 2.29 |
| TTKCVRQYIGHVNEYAYLPLHVHE [E9I] | 1.87 |
| TTKCVRQYDGHVNEYAYLPLHVHE [E9D] | 3.04 |
| TTKCVRQYLGHVNEYAYLPLHVHE [E9L] | 2.12 |
| TTKCVRQYYGHVNEYAYLPLHVHE [E9Y] | 1.97 |
| TTKCVRQYPGHVNEYAYLPLHVHE [E9P] | 2.51 |
| TTKCVRQYGGHVNEYAYLPLHVHE [E9G] | 2.55 |
| TTKCVRQYVGHVNEYAYLPLHVHE [E9V] | 2.42 |
| TTKCVRQYNGHVNEYAYLPLHVHE [E9N] | 2.52 |
| TTKCVRQYRGHVNEYAYLPLHVHE [E9R] | 2.18 |

| Variant | protein stability index |
| --- | --- |
| TTKCVRQYMGHVNEYAYLPLHVHE [E9M] | 2.32 |
| TTKCVRQYQGHVNEYAYLPLHVHE [E9Q] | 2.52 |
| TTKCVRQYKGHVNEYAYLPLHVHE [E9K] | 2.13 |
| TTKCVYQYEGHVNEYAYLPLHVHE [R6Y] | 2.4 |
| TTKCVMQYEGHVNEYAYLPLHVHE [R6M] | 2.38 |
| TTKCVNQYEGHVNEYAYLPLHVHE [R6N] | 2.95 |
| TTKCVVQYEGHVNEYAYLPLHVHE [R6V] | 2.1 |
| TTKCVLQYEGHVNEYAYLPLHVHE [R6L] | 2.18 |
| TTKCVSQYEGHVNEYAYLPLHVHE [R6S] | 2.01 |
| TTKCVTQYEGHVNEYAYLPLHVHE [R6T] | 2.49 |
| TTKCVPQYEGHVNEYAYLPLHVHE [R6P] | 2.26 |
| TTKCVQQYEGHVNEYAYLPLHVHE [R6Q] | 3.31 |
| TTKCVWQYEGHVNEYAYLPLHVHE [R6W] | 1.73 |
| TTKCVRQYENHVNEYAYLPLHVHE [G10N] | 2.11 |
| TTKCVRQYETHVNEYAYLPLHVHE [G10T] | 2.57 |
| TTKCVRQYECHVNEYAYLPLHVHE [G10C] | 2.61 |
| TTKCVRQYEAHVNEYAYLPLHVHE [G10A] | 2.37 |
| TTKCVRQYEFHVNEYAYLPLHVHE [G10F] | 1.66 |
| TTKCVRQYEMHVNEYAYLPLHVHE [G10M] | 2.06 |
| TTKCVRQYEYHVNEYAYLPLHVHE [G10Y] | 2.29 |
| TTKCVRQYEPHVNEYAYLPLHVHE [G10P] | 2.18 |
| TTKCVRQYEWHVNEYAYLPLHVHE [G10W] | 1.65 |
| TTKCVRQYEDHVNEYAYLPLHVHE [G10D] | 3.07 |
